Laboratory results: IntAct's records for PubMed 9422512

Target: wasp_human WAS (UniProt P42768)
Sequence (P42768 whole entry): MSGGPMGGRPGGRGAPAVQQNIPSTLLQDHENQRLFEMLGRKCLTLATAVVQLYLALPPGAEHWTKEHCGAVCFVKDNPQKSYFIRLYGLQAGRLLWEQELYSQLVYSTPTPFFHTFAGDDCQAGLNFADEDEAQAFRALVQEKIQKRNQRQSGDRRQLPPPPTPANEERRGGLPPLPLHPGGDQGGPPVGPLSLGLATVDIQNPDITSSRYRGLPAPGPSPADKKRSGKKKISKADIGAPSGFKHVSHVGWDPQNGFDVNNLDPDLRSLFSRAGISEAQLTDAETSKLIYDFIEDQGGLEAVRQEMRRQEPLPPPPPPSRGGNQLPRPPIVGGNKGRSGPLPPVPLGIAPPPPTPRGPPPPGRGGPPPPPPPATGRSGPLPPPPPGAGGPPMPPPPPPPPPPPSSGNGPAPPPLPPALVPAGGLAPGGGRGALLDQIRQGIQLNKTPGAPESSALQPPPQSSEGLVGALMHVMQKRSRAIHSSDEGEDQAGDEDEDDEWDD

Chain of Cell division control protein 42 homolog (Homo sapiens), P60953 Y40C (P60953 whole entry Y40C): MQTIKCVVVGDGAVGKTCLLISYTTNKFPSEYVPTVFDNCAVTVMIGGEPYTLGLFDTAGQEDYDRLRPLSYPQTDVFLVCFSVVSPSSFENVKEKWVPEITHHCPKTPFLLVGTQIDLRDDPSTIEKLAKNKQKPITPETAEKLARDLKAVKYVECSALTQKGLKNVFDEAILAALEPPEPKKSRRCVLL

effect of a mutation on the interaction: disrupting interaction
Substance: Cell division control protein 42 homolog (Homo sapiens), P60953 Y40C
